Data reported in patent US20200181597A1, “Composition and Application of Arginine-depleting Agents for Cancer, Obesity, Metabolic Disorders, and Related Complications and Comorbidities” (THE HONG KONG POLYTECHNIC UNIVERSITY, priority 2018, published 2020).
Blank lines part the entries; values can stand above or below the molecule they belong to.

Experiments:
plasma arginine = test: Plasma arginine after single i.p. dose of N-ABD-rhArg (Biochrom 30); type: in vivo, BALB/c mice
Procedure: FIG. 10 illustrates plasma arginine concentrations, measured using the Biochrom 30 Amino Acid Analyzer, of BALB/c mice after receiving intraperitoneal injection of a single dose of (A) 125U; (B) 250U; and (C) 500U of N-ABD-rhArg (SEQ ID NO: 49). N-ABD-rhArg (SEQ ID NO: 49) was injected at day 0.
Fifteen female BALB/c mice (10 weeks of age) were used in this study. They were kept in groups of five per cage. A single dose of N-ABD-rhArg (SEQ ID NO: 49) (500 U, 250 U, and 125 U, respectively) was administered to the mice via i.p. injection. Blood samples were collected from the saphenous vein using heparinized capillary tubes, and were centrifuged at 800×g to obtain plasma. Sixteen microliters of plasma sample was subjected to measurement of L-arginine concentration using the Biochrom 30 Amino Acid Analyzer. […] In comparing with BHA (SEQ ID NO: 75) (FIG. 9), N-ABD-rhArg (SEQ ID NO: 49) can deplete arginine to a very low level in the mice for exceptionally longer period, which highlights the importance of the requirement for rational design of the fusion protein.

[1] = system: 4T1 breast cancer allograft; test: 4T1 breast cancer allograft study; type: in vivo, female nude mice
Procedure: In another 4T1 breast cancer allograft study, female nude mice (5-6 weeks of age) were used. They were kept in groups of five per cage and provided food and water ad libitum. Cells of 4T1 breast cancer ([…]) were injected subcultuaneously into the right flank of the mice. […] There were one control group (n=8) and three experimental groups, including 500U PEGylated His-rhArg (SEQ ID NO: 101) (n=8), 500U N-ABD-rhArg (SEQ ID NO: 49) (n=6) and 250U N-ABD-rhArg (SEQ ID NO: 49) (n=8). Mice in the control group were injected with 1×PBS weekly. For the 500U ABD-rhArg group and the 250U ABD-rhArg group, mice were injected with 500U and 250U ABD-rhArg once a week, respectively; one group was injected with 500U PEG-rhArg once per week. The mice were sacrificed after 24 days of inoculation (i.e. 14 days after starting of experiment) because of necrosis of tumor in PBS control group. After sacrificing, the mice were dissected. Tumors were collected from the mice and measured their weight. Lungs were also collected and washed with 1×PBS. The lungs were fixed in Bouin's solution overnight and washed with 1×PBS after fixation. Lung metastatic nodules were counted.

[2] = system: 4T1 breast cancer xenograft; test: 4T1 breast cancer xenograft in nude mice; type: in vivo, female nude mice
Procedure: (§1) For the aggressive 4T1 breast cancer cell xenograft model studies, 10 female nude mice (11-12 weeks of age) were used. They were kept in groups of five per cage and provided food and water ad libitum. The 4T1 cancer cells were harvested by trypsinization and washed twice with 1×PBS and resuspended in 1×PBS for inoculation. The cancer cells (1×10^6 cells of 4T1) were injected subcutaneously into the left flank of the mice. […] They were injected with either 500U (3.2 mg, 230 μL) N-ABD-rhArg (SEQ ID NO: 49) or 1×PBS once per week. Blood samples were collected from the saphenous vein. Tumor size and the body weight of mice were monitored regularly. The tumor volume was estimated by the following equation: […]
The mice were sacrificed after 16 days of cancer cell inoculation (i.e. 13 days after starting of the experiment) because of necrosis of tumor in the PBS-injected control group. After being sacrificed, tumors were collected from the mice and the weight of the tumor was measured. Lungs were also collected and washed with 1×PBS. The lungs were fixed in Bouin's solution overnight and washed with 1×PBS after fixation. Lung metastatic nodules were counted.

[3] = target: human serum albumin (HSA) (Homo sapiens, UniProt P02768); test: Binding to HSA on non-denaturing PAGE; settings: fixed HSA titrated at various molar ratios
Procedure: When ABD is fused to rhArg or BCA, it is important for the fusion protein to retain both the albumin binding capacity and the enzymatic activity. […] The reaction mixtures were analyzed in their native condition on non-denaturing PAGE where the proteins were separated by size and conformation.
In FIG. 7, the mobility of each of HSA and N-ABD-rhArg (SEQ ID NO: 49) alone are shown in Lanes 2 and 3 of the non-denaturing PAGE, respectively (FIG. 7). A fixed amount of HSA (30 pmoles) was titrated against N-ABD-rhArg (SEQ ID NO: 49) at various molar ratios and the results are illustrated in Lanes 5-9. […] In FIG. 8, the mobility of each of HSA and BHA (SEQ ID NO: 75) alone are shown in Lanes 6 and 7 of the non-denaturing PAGE, respectively (FIG. 8). A fixed amount of HSA (60 pmoles) was titrated against BHA (SEQ ID NO: 75) at various molar ratios and the results are illustrated in Lanes 1-5.

serum arginine = test: Serum arginine in 4T1 xenograft nude mice (Biochrom 30); type: in vivo; settings: BDL: Below Detection Level
Procedure: as §1
Importantly, 500U of the albumin-binding arginase N-ABD-rhArg (SEQ ID NO: 49) depleted arginine to a level below the detection limit of the Biochrom 30 Amino Acid Analyzer (3 μM) for at least 10 days in BALB/c mice (FIG. 10). Therefore, 500 U of N-ABD-rhArg (SEQ ID NO: 49) was administered via i.p. injection once per week to the 4T1 breast cancer xenograft nude mice for efficacy study.

[4] = literature; cited from earlier work
[5] = Enzyme kinetics after metal ion substitution; type: biochemical
Procedure: Wild type arginase typically includes a Mn^2+ metal ion (D′Antonio & Christianson, 2011, Biochemistry, 50:8018-27). […] Purified N-ABD094-rhArg (SEQ ID NO: 50) in 20 mM Tris-HCl buffer (pH 7.4) was mixed with 20 mM of different divalent metal ions (Mn^2+, Ni^2+ or Co^2+), and was incubated at 52-55° C. for 15-60 min and then buffer exchanged with PBS buffer (pH 7.4).
Samples were subjected to enzyme activity and enzyme kinetic studies to determine the specific activity and catalytic efficiency (kcat/Km). Samples were applied to inductively coupled plasma atomic emission spectroscopy (ICP-OES, Agilent 700 Series ICP optical emission spectrometer) for quantitative analysis of metal content.

[6] = DIO mice treated with N-ABD094-rhArg-Co^2+; type: in vivo, C57BL/6J male mice; settings: 25-100U i.p., within 5 weeks, from 55 g, HFD continued
Excerpt: Production of N-ABD094-rhArg-Co^2+ [SEQ ID NO: 50 (cobalt substituted)] is described in Example 32. C57BL/6J male mice with pre-existing diet-induced obesity (DIO) received i.p. injection of 25-100U N-ABD094-rhArg-Co^2+[SEQ ID NO: 50 (cobalt substituted)] for 5 weeks, while continuously being fed a HFD.

binding to HSA (free HSA reduced in a proportional manner) [3]: specific binding
B1: N-ABD-rhArg: albumin binding domain (ABD) fused N-terminally to recombinant human arginase I, SEQ ID NO: 49 (protein)
chain: MHHHHHHDEAVDANSLAEAKVLANRELDKYGVSDYYKNLINNAKTVEGVKALIDEILAALPSGSNNNNNNGSGGMSAKSRTIGIIGAPFSKGQPRGGVEEGPTVLRKAGLLEKLKEQECDVKDYGDLPFADIPNDSPFQIVKNPRSVGKASEQLAGKVAEVKKNGRISLVLGGDHSLAIGSISGHARVHPDLGVIWVDAHTDINTPLTTTSGNLHGQPVSFLLKELKGKIPDVPGFSWVTPCISAKDIVYIGLRDVDPGEHYILKTLGIKYFSMTEVDRLGIGKVMEETLSYLLGRKKRPIHLSFDVDGLDPSFTPATGTPVVGGLTYREGLYITEEIYKTGLLSGLDIMEVNPSLGKTPEEVTRTVNTAVAITLACFGLAREGNHKPIDYLNPPK
modifications: N-ABD-rhArg, Synthesized in the Lab
time serum arginine below detection limit (3 μM) (plasma arginine; single i.p. dose 125U): at least 3 days
time serum arginine below detection limit (3 μM) (plasma arginine; single i.p. dose 250U): at least 7 days
growth of 4T1 solid tumor ([1]; 250U once per week): did not inhibit the growth
growth of 4T1 solid tumor ([1]; 500U once per week): inhibited the growth of the aggressive 4T1 solid tumor significantly
metastasis nodules from the lungs vs control group ([1]; 500U once per week): very significantly reduced
growth of 4T1 breast cancer xenograft ([2]; 500U once per week): inhibit the growth
Number of metastatic nodules found in lungs ([2]; 500 U once per week, n = 4 (PBS control: 3)): 0
% of metastasis free animals ([2]; 500 U once per week, n = 4 (PBS control: 50%)): 100%
estimated tumor volume vs control group ([2]; 500U once per week, 12 days and 13 days after starting): significant difference
Arginine Concentration (serum), individual mice 1-4 (serum arginine; Day 6, 500 U once per week): 0 (BDL) μM
Arginine Concentration (serum), individual mice 1-4 (serum arginine; Day 13, 500 U once per week): 0 (BDL) μM

B2: human arginase: unmodified human arginase (Georgiou et al.) (protein, UniProt P05089 1-322, looked up)
Arginase-1: MSAKSRTIGIIGAPFSKGQPRGGVEEGPTVLRKAGLLEKLKEQECDVKDYGDLPFADIPNDSPFQIVKNPRSVGKASEQLAGKVAEVKKNGRISLVLGGDHSLAIGSISGHARVHPDLGVIWVDAHTDINTPLTTTSGNLHGQPVSFLLKELKGKIPDVPGFSWVTPCISAKDIVYIGLRDVDPGEHYILKTLGIKYFSMTEVDRLGIGKVMEETLSYLLGRKKRPIHLSFDVDGLDPSFTPATGTPVVGGLTYREGLYITEEIYKTGLLSGLDIMEVNPSLGKTPEEVTRTVNTAVAITLACFGLAREGNHKPIDYLNPPK
half-life / clearance in circulation [4]: a few minutes

B3: N-ABD094-rhArg-Co^2+: cobalt-substituted N-ABD094-rhArg enzyme (protein)
chain: MHHHHHHDEAVDANSLAEAKEAANAELDSYGVSDFYKRLIDKAKTVEGVEALKDAILAALPSGSNNNNNNGSGGMSAKSRTIGIIGAPFSKGQPRGGVEEGPTVLRKAGLLEKLKEQECDVKDYGDLPFADIPNDSPFQIVKNPRSVGKASEQLAGKVAEVKKNGRISLVLGGDHSLAIGSISGHARVHPDLGVIWVDAHTDINTPLTTTSGNLHGQPVSFLLKELKGKIPDVPGFSWVTPCISAKDIVYIGLRDVDPGEHYILKTLGIKYFSMTEVDRLGIGKVMEETLSYLLGRKKRPIHLSFDVDGLDPSFTPATGTPVVGGLTYREGLYITEEIYKTGLLSGLDIMEVNPSLGKTPEEVTRTVNTAVAITLACFGLAREGNHKPIDYLNPPK
modifications: cobalt substituted; N-ABD094-rhArg, Synthesized in the Lab
notes: cobalt-substituted N-ABD094-rhArg enzyme
Km [5]: 270 to 350 µM
kcat [5]: 250 to 316 s⁻¹
bodyweight after treatment [6]: 30 g
